The chains are these.
B1: Del248-262: small internal STARS deletion mutant within the conserved region (protein)
chain: MAPGEKESGEGPAKSALRKIRTATLVISLARGWQQWANENSIRQAQEPTGWLPGGTQDSPQAPKPITPPTSHQKAQSAPKSPPRLPEGHGDGQSSEKAPEVSHIKKKEVSKTVVSKTYERGGDVSHLSHRYERDAGVLEPGQPENDIDRILHSHGSPTRRRKCANLVSELTKGWRVMEQEEPTWRSDSVDTEDSGYGGEAEERPEQDGVQVAVVRIKRPLPSQVNRFTEKLNCKAQQKYSPVGNLKGNPFSEEFDYELAMSTRLHKGDEGYGRPKEGTKTAERAKRAEEHIYREMMDMCFIICTMARHRRDGKIQVTFGDLFDRYVRISDKVVGILMRARKHGLVDFEGEMLWQGRDDHV
modifications: left off: small tags and cut ends
notes: small internal STARS deletion mutant within the conserved region
B2: C142: STARS deletion mutant that encoded only the conserved carboxy-terminal region (142 amino acids) (protein)
chain: KAQQKYSPVGNLKGRWQQWADEHIQSQKLNPFSEEFDYELAMSTRLHKGDEGYGRPKEGTKTAERAKRAEEHIYREMMDMCFIICTMARHRRDGKIQVTFGDLFDRYVRISDKVVGILMRARKHGLVDFEGEMLWQGRDDHV
modifications: left off: small tags and cut ends
B3: Del263-279: small internal STARS deletion mutant within the conserved region (protein)
chain: MAPGEKESGEGPAKSALRKIRTATLVISLARGWQQWANENSIRQAQEPTGWLPGGTQDSPQAPKPITPPTSHQKAQSAPKSPPRLPEGHGDGQSSEKAPEVSHIKKKEVSKTVVSKTYERGGDVSHLSHRYERDAGVLEPGQPENDIDRILHSHGSPTRRRKCANLVSELTKGWRVMEQEEPTWRSDSVDTEDSGYGGEAEERPEQDGVQVAVVRIKRPLPSQVNRFTEKLNCKAQQKYSPVGNLKGRWQQWADEHIQSQKLHKGDEGYGRPKEGTKTAERAKRAEEHIYREMMDMCFIICTMARHRRDGKIQVTFGDLFDRYVRISDKVVGILMRARKHGLVDFEGEMLWQGRDDHV
modifications: left off: small tags and cut ends
notes: as for B1
B4: Del234-247: small internal STARS deletion mutant within the conserved region (protein)
chain: MAPGEKESGEGPAKSALRKIRTATLVISLARGWQQWANENSIRQAQEPTGWLPGGTQDSPQAPKPITPPTSHQKAQSAPKSPPRLPEGHGDGQSSEKAPEVSHIKKKEVSKTVVSKTYERGGDVSHLSHRYERDAGVLEPGQPENDIDRILHSHGSPTRRRKCANLVSELTKGWRVMEQEEPTWRSDSVDTEDSGYGGEAEERPEQDGVQVAVVRIKRPLPSQVNRFTEKLNCRWQQWADEHIQSQKLNPFSEEFDYELAMSTRLHKGDEGYGRPKEGTKTAERAKRAEEHIYREMMDMCFIICTMARHRRDGKIQVTFGDLFDRYVRISDKVVGILMRARKHGLVDFEGEMLWQGRDDHV
modifications: left off: small tags and cut ends
notes: as for B1
B5: N101-233: STARS deletion mutant lacking residues from the carboxy-terminus into the conserved region (protein)
chain: VSHIKKKEVSKTVVSKTYERGGDVSHLSHRYERDAGVLEPGQPENDIDRILHSHGSPTRRRKCANLVSELTKGWRVMEQEEPTWRSDSVDTEDSGYGGEAEERPEQDGVQVAVVRIKRPLPSQVNRFTEKLNC
modifications: left off: small tags and cut ends
notes: STARS deletion mutant lacking residues from the carboxy-terminus into the conserved region
B6: N100: STARS deletion mutant lacking residues from the carboxy-terminus into the conserved region (protein)
chain: MAPGEKESGEGPAKSALRKIRTATLVISLARGWQQWANENSIRQAQEPTGWLPGGTQDSPQAPKPITPPTSHQKAQSAPKSPPRLPEGHGDGQSSEKAPE
modifications: left off: small tags and cut ends
notes: as for B5
B7: N233: STARS deletion mutant lacking residues from the carboxy-terminus into the conserved region (protein)
chain: MAPGEKESGEGPAKSALRKIRTATLVISLARGWQQWANENSIRQAQEPTGWLPGGTQDSPQAPKPITPPTSHQKAQSAPKSPPRLPEGHGDGQSSEKAPEVSHIKKKEVSKTVVSKTYERGGDVSHLSHRYERDAGVLEPGQPENDIDRILHSHGSPTRRRKCANLVSELTKGWRVMEQEEPTWRSDSVDTEDSGYGGEAEERPEQDGVQVAVVRIKRPLPSQVNRFTEKLNC
modifications: left off: small tags and cut ends
notes: as for B5

Entries after “also recorded” stand apart in the source; their conditions may differ.

The first assay deals with SM22 promoter. The experiment in a line: SM22-luciferase reporter assay in transiently transfected COS cells. The class given is cell-based. The conditions noted are these: COS cells, STARS and deletion mutants. An excerpt:
STARS Expression Plasmids. STARS expression constructs were generated using the pcDNA3.1 mammalian expression vector (Invitrogen) which was modified to contain an amino-terminal Myc-tag. Constitutively active RhoA (L63) and C3 transferase in Prk5 were generously provided by Dr. Alan Hall (University College, London, United Kingdom). The SM22-luciferase reporter 1343 bp promoter has been previously described (Li et al., 1995). The smooth muscle α actin-luciferase reporter contained the 4 kb promoter region ligated into the pBL3basic vector (Promega). The ANF reporter contained the 638 bp promoter region (a generous gift from Dr. Mona Nemer, Universite de Montreal, Montreal, Quebec, Canada). The 4× cfos reporter contained four tandem copies of the cfos CArG box with flanking sequences, as described (Chang et al., 2001). CMV-lacZ (Promega) was used as an internal control for transfection efficiency.
(§1) Transient Transfections, Reporter Assays and Immunofluorescence Microscopy. COS cells were maintained in DMEM with 10% FBS. Eighteen hours after plating, the medium was changed to serum-free medium and transfections were performed at 50% confluency using FuGENE reagent-6 (Roche Molecular Biochemicals) following manufacturer's instructions. Each transfection used 0.15 μg of plasmid DNA for the reporter assays, and 0.5-1.0 μg immunohistochemistry. Cytochalasin D 2 μM (Sigma-Aldrich), and Y-27632 75 μM (Tocris) were added directly just after transfection. Latrunculin B 0.5 μM (dissolved in 10% ethanol, Calbiochem) was added 12 hr after transfection and 10% ethanol (final concentration 0.01%) was added to control wells. Cells were harvested 36 hr after transfection and their luciferase and β-galactosidase activity were measured.
As to B1, the “activation of SM22-luciferase / SRF transcription, in words” value was “activate SRF transcription”.
Regarding B2, the “activation of SM22-luciferase / SRF transcription, in words” value was “as effective as the full-length protein; also recorded: activate SRF transcription”.
For B3, the “activation of SM22-luciferase / SRF transcription, in words” value is “activate SRF transcription”.
B4: the “activation of SM22-luciferase / SRF transcription, in words” value is on record as “activate SRF transcription”.

A further assay deals with F-actin. As to the kind of experiment: Immunofluorescence / Phalloidin-TRITC staining of transfected COS cells. The class given is cell-based. The conditions noted are these: transfected COS cells, Myc-tagged proteins. As for the experimental part:
as §1
For measuring immunofluorescence, cells were rinsed with PBS and fixed in 4% paraformaldehyde for 10 min on ice. After rinsing with PBS, COS cells were incubated in 0.1% Triton X-100 in PBS for 5 min on ice. For rat neonatal cardiomyocytes, 1% Triton X-100 in PBS was used. Cells were blocked for 20 min at room temperature in 0.5% BSA in PBS for COS cells and in 1% BSA plus 3% goat serum in PBS for rat cardiomyocytes. Then, cells were incubated with first antibody diluted in 0.5% BSA in PBS for 30-60 min at room temperature or overnight at 4° C. Anti c-myc monoclonal antibody 9E10 (Santa Cruz) was used at a 1:200 dilution. Other antibodies were anti α-actinin monoclonal antibody (1:400; Sigma-Aldrich), α-tubulin antibody (1:2000; Sigma-Aldrich) and anti-vimentin antibody (1:500; Sigma-Aldrich). Secondary antibodies were anti mouse/rabbit IgG FITC or Texas red (Vector) used at a 1:200 dilution incubated with or without Phalloidin-TRITC (1:500; Sigma Aldrich).
On to B1, for which the “bundling of actin stress fibers” value is reported as “induce actin bundles”.
Take B2: the “association with F-actin / actin stress fibers” value was “associated with F-actin” and the “bundling of actin stress fibers” value is “increased stress fibers; also recorded: induce actin bundles”.
The like results for B5 were, in that order, “did not affect the association with F-actin” and “abolished the ability of STARS to bundle actin stress fibers”.
The corresponding values for B6 are “did not affect the association with F-actin” and “abolished the ability of STARS to bundle actin stress fibers”.
With B7, the “association with F-actin / actin stress fibers” value is recorded as “did not affect the association with F-actin” and the “bundling of actin stress fibers” value is given as “abolished the ability of STARS to bundle actin stress fibers”.
Consider B3, for which the “bundling of actin stress fibers” value is reported as “induce actin bundles”.
Still for that read-out and setting: the same measure for B4: “induce actin bundles”.

For another assay, the system named is actin. As to the kind of experiment: Co-immunoprecipitation of Myc-tagged proteins with actin in COS cells. The conditions noted are these: anti-Myc immunoprecipitation, anti-actin Western blot. The class given is binding. As for the experimental part: Western Blot and Co-immunoprecipitation Assay. Immunoprecipitation and western blot analysis was performed as described previously (Lu et al., 2000). For immunoprecipitation, cells were incubated with 1 μg anti c-myc polyclonal antibody A14 (Santa Cruz). Western blots were performed with anti-actin monoclonal antibody C4 (1:100; Roche Molecular Biochemicals) or anti c-myc monoclonal antibody 9E10 (1:1000; Santa Cruse) followed by incubation with secondary antibody HRP-conjugated anti mouse-IgG (Santa Cruse, Vector). To detect signals, blots were incubated with ECL (Santa Cruz) for 1 min, and exposed to film (Eastman Kodak Co).
As for B1, the co-immunoprecipitation with actin entry was “weak actin-binding activity”.
Regarding B2, the co-immunoprecipitation with actin result was “co-immunoprecipitated with actin”.
Still for that read-out and setting: the same measure for B5: “did not bind actin”; for B6: “did not bind actin”.
On the same count and under the same terms, the same measure for B7: “did not bind actin”.
The same measure, in the same setting: the same measure for B3: “weak actin-binding activity”.
With B4, the co-immunoprecipitation with actin result is “weak actin-binding activity”.

These data come from patent publication US7405286B2, “Stars—A muscle-specific actin-binding protein” (The Board of Regents of the University of Texas System, priority 2002, dated 2008).
